Data published in article PMC8752480 (Journal of molecular biology, 2021).

B3: hexon (major capsid protein) of HAdV-C5 in the Ad5F35-ts1 virion (natural protein)
chain: MATPSMMPQWSYMHISGQDASEYLSPGLVQFARATETYFSLNNKFRNPTVAPTHDVTTDRSQRLTLRFIPVDREDTAYSYKARFTLAVGDNRVLDMASTYFDIRGVLDRGPTFKPYSGTAYNALAPKGAPNPCEWDEAATALEINLEEEDDDNEDEVDEQAEQQKTHVFGQAPYSGINITKEGIQIGVEGQTPKYADKTFQPEPQIGESQWYETEINHAAGRVLKKTTPMKPCYGSYAKPTNENGGQGILVKQQNGKLESQVEMQFFSTTEATAGNGDNLTPKVVLYSEDVDIETPDTHISYMPTIKEGNSRELMGQQSMPNRPNYIAFRDNFIGLMYYNSTGNMGVLAGQASQLNAVVDLQDRNTELSYQLLLDSIGDRTRYFSMWNQAVDSYDPDVRIIENHGTEDELPNYCFPLGGVINTETLTKVKPKTGQENGWEKDATEFSDKNEIRVGNNFAMEINLNANLWRNFLYSNIALYLPDKLKYSPSNVKISDNPNTYDYMNKRVVAPGLVDCYINLGARWSLDYMDNVNPFNHHRNAGLRYRSMLLGNGRYVPFHIQVPQKFFAIKNLLLLPGSYTYEWNFRKDVNMVLQSSLGNDLRVDGASIKFDSICLYATFFPMAHNTASTLEAMLRNDTNDQSFNDYLSAANMLYPIPANATNVPISIPSRNWAAFRGWAFTRLKTKETPSLGSGYDPYYTYSGSIPYLDGTFYLNHTFKKVAITFDSSVSWPGNDRLLTPNEFEIKRSVDGEGYNVAQCNMTKDWFLVQMLANYNIGYQGFYIPESYKDRMYSFFRNFQPMSRQVVDDTKYKDYQQVGILHQHNNSGFVGYLAPTMREGQAYPANFPYPLIGKTAVDSITQKKFLCDRTLWRIPFSSNFMSMGALTDLGQNLLYANSAHALDMTFEVDPMDEPTLLYVLFEVFDVVRVHRPHRGVIETVYLRTPFSAGNATT

What was measured:
[1] = target: B3; test: […]
[…] = target: the molecule itself; test: […]

B1: precursor of protein VI (pVI) of HAdV-C5 in the Ad5F35-ts1 virion (natural protein)
chain: MEDINFASLAPRHGSRPFMGNWQDIGTSNMSGGAFSWGSLWSGIKNFGSTVKNYGSKAWNSSTGQMLRDKLKEQNFQQKVVDGLASGISGVVDLANQAVQNKINSKLDPRPPVEEPPPAVETVSPEGRGEKRPRPDREETLVTQIDEPPSYEEALKQGLPTTRPIAPMATGVLGQHTPVTLDLPPPADTQQKPVLPGPTAVVVTRPSRASLRRAASGPRSLRPVASGNWQSTLNSIVGLGVQSLKRRRCF
binding result [1]: binds

B2: penton base of HAdV-C5 in the Ad5F35-ts1 virion (natural protein)
chain: MRRAAMYEEGPPPSYESVVSAAPVAAALGSPFDAPLDPPFVPPRYLRPTGGRNSIRYSELAPLFDTTRVYLVDNKSTDVASLNYQNDHSNFLTTVIQNNDYSPGEASTQTINLDDRSHWGGDLKTILHTNMPNVNEFMFTNKFKARVMVSRLPTKDNQVELKYEWVEFTLPEGNYSETMTIDLMNNAIVEHYLKVGRQNGVLESDIGVKFDTRNFRLGFDPVTGLVMPGVYTNEAFHPDIILLPGCGVDFTHSRLSNLLGIRKRQPFQEGFRITYDDLEGGNIPALLDVDAYQASLKDDTEQGGGGAGGSNSSGSGAEENSNAAAAAMQPVEDMNDHAIRGDTFATRAEEKRAEAEAAAEAAAPAAQPEVEKPQKKPVIKPLTEDSKKRSYNLISNDSTFTQYRSWYLAYNYGDPQTGIRSWTLLCTPDVTCGSEQVYWSLPDMMQDPVTFRSTRQISNFPVVGAELLPVHSKSFYNDQAVYSQLIRQFTSLTHVFNRFPENQILARPPAPTITTVSENVPALTDHGTLPLRNSIGGVQRVTITDARRRTCPYVYKALGIVSPRVLSSRTF
binding result ([…]): binds | binding result [1]: binds

B3
binding result ([…]): binds

B4: precursor of protein IIIa (pIIIa) of HAdV-C5 in the Ad5F35-ts1 virion (natural protein)
chain: MMQDATDPAVRAALQSQPSGLNSTDDWRQVMDRIMSLTARNPDAFRQQPQANRLSAILEAVVPARANPTHEKVLAIVNALAENRAIRPDEAGLVYDALLQRVARYNSGNVQTNLDRLVGDVREAVAQRERAQQQGNLGSMVALNAFLSTQPANVPRGQEDYTNFVSALRLMVTETPQSEVYQSGPDYFFQTSRQGLQTVNLSQAFKNLQGLWGVRAPTGDRATVSSLLTPNSRLLLLLIAPFTDSGSVSRDTYLGHLLTLYREAIGQAHVDEHTFQEITSVSRALGQEDTGSLEATLNYLLTNRRQKIPSLHSLNSEEERILRYVQQSVSLNLMRDGVTPSVALDMTARNMEPGMYASNRPFINRLMDYLHRAAAVNPEYFTNAILNPHWLPPPGFYTGGFEVPEGNDGFLWDDIDDSVFSPQPQTLLELQQREQAEAALRKESFRRPSSLSDLGAAAPRSDASSPFPSLIGSLTSTRTTRPRLLGEEEYLNNSLLQPQREKNLPPAFPNNGIESLVDKMSRWKTYAQEHRDVPGPRPPTRRQRHDRQRGLVWEDDDSADDSSVLDLGGSGNPFAHLRPRLGRMF
binding result ([…]): binds | binding result [1]: binds

B5: precursor of protein VIII (pVIII) of HAdV-C5 in the Ad5F35-ts1 virion (natural protein)
chain: MSKEIPTPYMWSYQPQMGLAAGAAQDYSTRINYMSAGPHMISRVNGIRAHRNRILLEQAAITTTPRNNLNPRSWPAALVYQESPAPTTVVLPRDAQAEVQMTNSGAQLAGGFRHRVRSPGQGITHLTIRGRGIQLNDESVSSSLGLRPDGTFQIGGAGRPSFTPRQAILTLQTSSSEPRSGGIGTLQFIEEFVPSVYFNPFSGPPGHYPDQFIPNFDAVKDSADGYD
binding result [1]: binds

B6: protein IX of HAdV-C5 in the Ad5F35-ts1 virion (natural protein)
chain: MSTNSFDGSIVSSYLTTRMPPWAGVRQNVMGSSIDGRPVLPANSTTLTYETVSGTPLETAASAAASAAAATARGIVTDFAFLSPLASSAASRSSARDDKLTALLAQLDSLTRELNVVSQQLLDLRQQVSALKASSPPNAV
binding result [1]: binds
